The text below walks through data of publication PMC3281039, “Tetrahydrodipicolinate N-Succinyltransferase and Dihydrodipicolinate Synthase from Pseudomonas aeruginosa: Structure Analysis and Gene Deletion” (PLoS ONE, 2012).

In series [1] the target is T1, tetrahydrodipicolinate N-succinyltransferase (DapD, PA3666) (Pseudomonas aeruginosa, UniProt G3XD76).
T1 sequence (G3XD76 1-344): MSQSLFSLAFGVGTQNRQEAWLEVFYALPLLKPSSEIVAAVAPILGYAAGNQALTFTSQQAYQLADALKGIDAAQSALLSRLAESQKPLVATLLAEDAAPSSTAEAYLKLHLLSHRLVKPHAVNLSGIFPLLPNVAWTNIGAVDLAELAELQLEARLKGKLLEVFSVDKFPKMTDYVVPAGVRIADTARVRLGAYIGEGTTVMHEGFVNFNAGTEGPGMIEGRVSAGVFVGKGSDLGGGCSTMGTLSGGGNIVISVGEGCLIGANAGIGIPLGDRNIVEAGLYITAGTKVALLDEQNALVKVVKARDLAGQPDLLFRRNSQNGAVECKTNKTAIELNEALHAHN
Kind of series: crystal structure at […] Å (co-crystallization), with succinate. The class given is binding. Also on record: recombinant DapD; model residues 1–245 and 251–343.

Series [2] concerns the target T1, tetrahydrodipicolinate N-succinyltransferase (DapD, PA3666). Kind of series: crystal structure at […] Å (soaking); IC50 in DTNB succinyltransferase assay. It is filed as biochemical. On the set-up: recombinant DapD with Gly-Ser-His at the N-terminus after thrombin cleavage; residues 330–344 not modeled.
For series [3] the target is unchanged. Kind of series: crystal structure at […] Å with CoA; succinate from […] in the crystallization buffer. On the set-up: recombinant DapD; model residues 1–245 and 251–343. It is filed as binding.
For series [4], the target named is Tetrahydrodipicolinate N-succinyltransferase (DapD, PA3666) from Pseudomonas aeruginosa (Pseudomonas aeruginosa PAO1). Kind of series: crystal structure; PaDapD, hanging drops, 19-20% PEG3350, 0.3-0.4 M succinate pH 6.2; tetragonal P4(1)2(1)2 (apo, CoA-succinate) and monoclinic P2(1) (apo, L-2AP, D-2AP) crystal forms.
For series [5] the target is unchanged. Kind of series: SEC; analytical size exclusion chromatography, Superdex-200 10/30, 25 mM Tris-HCl pH 8.0, 150 mM NaCl; calibrated with chymotrypsinogen-A, ovalbumin, albumin, catalase, ferritin. Background: Size exclusion chromatography separates by hydrodynamic size, large species first.
Substrate in series [6]: N[C@@H](CCCCC(=O)O)C(=O)O
The series can be described thus: purified protein. The class given is biochemical, Pseudomonas aeruginosa. The following applies: active site groove between two subunits of the homotrimer; two arginines (Arg181, Arg193), Asn209, Ala226, Glu221.

Series [7] deals with the molecule itself. The series can be described thus: SEC; analytical size exclusion chromatography, Superdex-200 10/30, 25 mM Tris-HCl pH 8.0, 150 mM NaCl; calibrated with chymotrypsinogen-A, ovalbumin, albumin, catalase, ferritin.

Regarding `CC(C)(COP(=O)(O)OP(=O)(O)OC[C@H]1O[C@@H](n2cnc3c(N)ncnc32)[C@H](O)[C@@H]1OP(=O)(O)O)[C@@H](O)C(=O)NCCC(=O)NCCS` [CoA, coenzyme A], the “crystal structure at 2.40 Å (co-crystallization), with succinate” value in series [1] was “Coenzyme A is bound in this narrow cleft formed at the interface of two adjacent subunits”.
In the case of `N[C@H](CCCCC(=O)O)C(=O)O` [D-2AP, D-2-aminopimelate], the IC50 in series [2] was more than 20 mM.
Regarding `O=C(O)CCC(=O)O` [succinate], the “crystal structure at 2.40 Å with CoA; succinate from 0.4 M in the crystallizatio” value in series [3] was “contains a succinate molecule bound next to the acceptor arm of the CoA in the active site cleft”.
Turning to “Tetrahydrodipicolinate N-succinyltransferase (DapD, PA3666) from Pseudomonas aeruginosa (enzyme)”, the stoichiometry N in series [4] and in series [5] was 3 in each case.

B1: tetrahydrodipicolinate N-succinyltransferase (DapD, PA3666) (Pseudomonas aeruginosa PAO1) (protein)
chain: MSQSLFSLAFGVGTQNRQEAWLEVFYALPLLKPSSEIVAAVAPILGYAAGNQALTFTSQQAYQLADALKGIDAAQSALLSRLAESQKPLVATLLAEDAAPSSTAEAYLKLHLLSHRLVKPHAVNLSGIFPLLPNVAWTNIGAVDLAELAELQLEARLKGKLLEVFSVDKFPKMTDYVVPAGVRIADTARVRLGAYIGEGTTVMHEGFVNFNAGTEGPGMIEGRVSAGVFVGKGSDLGGGCSTMGTLSGGGNIVISVGEGCLIGANAGIGIPLGDRNIVEAGLYITAGTKVALLDEQNALVKVVKARDLAGQPDLLFRRNSQNGAVECKTNKTAIELNEALHAHN
notes: recombinant DapD with Gly-Ser-His at the N-terminus after thrombin cleavage; residues 330–344 not modeled
Turning to B1, the Km in series [6] worked out at 7.0 mM.

B2: Dihydrodipicolinate synthase (DapA, PA1010) from Pseudomonas aeruginosa (enzyme, Pseudomonas aeruginosa PAO1)
chain: MIAGSMVALVTPFDAQGRLDWDSLAKLVDFHLQEGTNAIVAVGTTGESATLDVEEHIQVIRRVVDQVKGRIPVIAGTGANSTREAVALTEAAKSGGADACLLVTPYYNKPTQEGMYQHFRHIAEAVAIPQILYNVPGRTSCDMLPETVERLSKVPNIIGIKEATGDLQRAKEVIERVGKDFLVYSGDDATAVELMLLGGKGNISVTANVAPRAMSDLCAAAMRGDAAAARAINDRLMPLHKALFIESNPIPVKWALHEMGLIPEGIRLPLTWLSPRCHEPLRQAMRQTGVLA
notes: Dihydrodipicolinate synthase DapA, locus PA1010, Pseudomonas aeruginosa PAO1; the gene coding for DapA was cloned in pNIC28Bsa4 by LIC; the final model holds residues 1-291 (chain A) and 2-291 (chains B, C, D); N-terminal His6 tag with TEV site from vector pNIC28Bsa4 (GenBank EF198106); also called PaDapA; source: E. coli BL21(DE3), purified (Ni-NTA, Sephadex G-25 desalting); not shown: His6, …
With B2, the “stoichiometry N” value in series [7] came out at 2.

By IC50 is commonly meant the concentration that inhibits the measured activity by half. As usually defined, the stoichiometry N is the number of molecules, sites or subunits per partner or assembly. For orientation: Km means the substrate concentration at which the rate is half of its maximum.
